# Measured values from article doi:10.1101/2025.07.02.662713.
# Target: CFP-MtbDarG MD (mCerulean-fused macrodomain of Mycobacterium tuberculosis DNA ADP-ribosylglycohydrolase DarG) (M. tuberculosis) (UniProt O53605)
# Experiment: FRET or BRET
# Chain of PARylated YFP-GAP (mCitrine fused to a C-terminal Gαi 10-mer peptide, poly-ADP-ribosylated) (P63096 whole entry, looked up, the tested form may be a part): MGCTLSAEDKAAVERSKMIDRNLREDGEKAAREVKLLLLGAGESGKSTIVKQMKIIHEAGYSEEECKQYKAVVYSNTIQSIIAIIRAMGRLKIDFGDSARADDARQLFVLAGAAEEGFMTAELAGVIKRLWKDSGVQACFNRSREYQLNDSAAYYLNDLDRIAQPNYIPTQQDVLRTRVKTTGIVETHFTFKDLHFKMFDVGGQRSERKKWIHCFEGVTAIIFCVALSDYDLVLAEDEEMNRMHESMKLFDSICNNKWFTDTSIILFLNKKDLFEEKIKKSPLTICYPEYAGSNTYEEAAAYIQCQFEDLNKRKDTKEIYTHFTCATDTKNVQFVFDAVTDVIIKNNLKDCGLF
# Chain of CFP-MtbDarG MD (mCerulean-fused macrodomain of Mycobacterium tuberculosis DNA ADP-ribosylglycohydrolase DarG) (M. tuberculosis) (O53605 1-155): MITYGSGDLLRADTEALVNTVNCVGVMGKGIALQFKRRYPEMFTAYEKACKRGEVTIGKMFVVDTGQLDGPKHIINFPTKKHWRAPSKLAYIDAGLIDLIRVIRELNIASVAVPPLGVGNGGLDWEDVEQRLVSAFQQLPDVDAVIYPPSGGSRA
substance,measurement,value
"PARylated YFP-GAP (mCitrine fused to a C-terminal Gαi 10-mer peptide, poly-ADP-ribosylated) (from UniProt P63096 345-354)",Kd,0.316 µM
